Measurements taken from a protein production outcome set (Wang et al. 2014).

Assay: label from the status in PepcDB records
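Further: failed if final PepcDB status was selected cloned or expressed and not failed if soluble or beyond.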

| Sequence | protein production |
| --- | --- |
| MFFEIALIGTTASGKTYIANTLAREFNAVVLSLDSLCVYKEINIASAKPSQDDLASIKYFGVNLLSVNEHFNVELFIREYQKAKEFALARNLPLIIVGGTGFYLKTMIDGLSEKTLESKSSLNNDEIYALLLNIDPNYKIEKNDTYRLKKWLGIYEQTREIPSEFLKRTQKTGVLKDIEIYELAWDKEILKKRIKTRTKEMLDNGLLDEAKILFSKFDHKLKALNSIGLKECKEYLDGEISFKELENLITIHTTQLAKRQRTFNKKFQSKALEFDKALATLRMKFSIEKLEHHHHHH | failed |
| MSELAASLLSRVILPRPGEPLDVRKLYLEESTTNARRAHAPTRTSLQIGAESEVSFATYFNAFPASYWRRWTTCKSVVLRVQVTGAGRVDVYRTKATGARIFVEGHDFTGTEDQPAAVETEVVLQPFEDGGWVWFDITTDTAVTLHSGGWYATSPAPGTANIAVGIPTFNRPADCVNALRELTADPLVDQVIGAVIVPDQGERKVRDHPDFPAAAARLGSRLSIHDQPNLGGSGGYSRVMYEALKNTDCQQILFMDDDIRLEPDSILRVLAMHRFAKAPMLVGGQMLNLQEPSHLHIMGEVVDRSIFMWTAAPHAEYDHDFAEYPLNDNNSRSKLLHRRIDVDYNGWWTCMIPRQVAEELGQPLPLFIKWDDADYGLRAAEHGYPTVTLPGAAIWHMAWSDKDDAIDWQAYFHLRNRLVVAAMHWDGPKAQVIGLVRSHLKATLKHLACLEYSTVAIQNKAIDDFLAGPEHIFSILESALPQVHRIRKSYPDAVVLPAASELPPPLHKNKAMKPPVNPLVIGYRLARGIMHNLTAANPQHHRRPEFNVPTQDARWFLLCTVDGATVTTADGCGVVYRQRDRAKMFALLWQSLRRQRQLLKRFEEMRRIYRDALPTLSSKQKWETALLPAANQEPEHG | failed |
| MEPNCVQFLENRTILVTGASGFLAKVLVERILRLQPNVKRLYLLVRASDKKSAEQRYDVALGINTFGAINVLNFAKKCVKPKLLLHVSTVYVCGERPGHIVEKHFAMGESLNGKNKVDINTERRLADQKSKQFKEQGCSEEETEQAMKDFGLKRARLYGWPNTYVFTKAMGEMLLGHYRETMPIVIIRPTIITSTFSDPFPGWIEGLKTVDSVIIFYGKGILKCFLVDQKTVCDIIPVDMVVNAMIAIAADHCHDSGSHTVYHVGSSNQNPVIYKQIYEMMSRYFMKSPLVGRNGMLIVPKVTRISTLARFRVYTNLRYKLPIQILGLLSVISLSQRDKFALHNRKFKMAMRLVKLYKPYVLFKGIFDDKNMETLRIKNEAKDMEKLFGTNPKCIDWEDYFMIRISLAS | failed |
| MPVEITVKELLEAGVHFGHERKRWNPKFARYIYAERNGIHIIDLQKTMEELERTFRFIEDLAMRGGTILFVGTKKQAQDIVRMEAERAGMPYVNQRWLGGMLTNFKTISQRVHRLEELEALFASPEIEERPKKEQVRLKHELERLQKYLSGFRLLKRLPDAIFVVDPTKEAIAVREARKLFIPVIALADTDSDPDLVDYIIPGNDDAIRSIQLILSRAVDLIIQARGGVVEPSPSYALVQEAEATETPEGESEVEA | not failed |
| MDLKGWISKKSSNVSYEKIKYEFSNVKYSVDHGRLEILHGIKGILLPKTITVIMGPSGSGKTTLLNILSMKVTEGVEGDFLINDMSRMKNIKRHMGYVLQDDYFFSRLTVYETIEFTAKLKLDIRDKKKLNELVHSVLDIMSLTHVKDTIVGDAFIRGISGGQRKRLSIANEILSNPPLLLMDEPTSGLDSSSALSLVECIQRIAQTSNTTIISSLHQPSSQVFSKFDRLIAITNGYIIYHGKTTDLNKYLKKVGFICPYGWNVADYLMDILSNKKFEAILIDNYNKYLHFDSDVGYYMNVKAIDSKIIHDDYDSILEKTNQSISKNSQTNNKSSTNLSSINKSPILSTQENKTREHDILKFQAVELLISLQENKTPYIRQNFFLLIRGLKKIITDEITIIKVIDLVVILTLFGVLWLHTFKEETEEGIIDTIGAIFFILSYWTFYPAYLSLYSFPSEREVIAKERNMKTFQVSNYFLSKLLAEFIYFFMIIAFWILVTHLILYGTLKIGIYLSYAFITLLNALISSSLGYFISTLFDNFSKAVSFLSVVLLTMTLTNGFYVEISKLDVPFRYLQWLSYQTYSASVLAKIKFDDALIKCSPDNNSLPCKNNGFFPGEIIVQKRFATLHISISILILICFYSVIKTFTYVSLRWSQALKMK | failed |
| MGTRGNEEEEDWFSDAREEVSSVSDCNSEVADDFVQATGDLDLWTMNPESVTNRRQKFFQSMGFSFKKRDFDLDLDLLGDSSSDHIPVSKQLTSVSETDHEEEEKEEKLLRNESTSSGSSVSSFSTASLAEAFSFRGSFQNRAKNIDDQILLTRDYSSNSSSIAEGLSESDSSRFDSYGDLPNSPMSRYEESPKKGAKGWLKKLGVLTHVLDKTEECTDGESTRSSIRRQLTRVQSFKKQFKELSSLCVGQEFSAHDGSIVVMKFSHDGKYLASAGEDCVVRVWNIIEDERRDNEFEVAESDSSCVYFGMNDKSQIEPLKTENEKIEKSRGLLRKKSESTCAVLPSKVFSISETPQHEFRGHTGEILDLSWSEKGFLLSSSVDETVRLWRVGSSDECIRVFSHKSFVTCVAFNPVDDNYFISGSIDGKVRIWDVSQFRVVDYTDIRQIVTALCYRPDGKGAVVGSMTGECRFYHTTDNQLQLDRDISLHGKKKVPNKRITGFQFFPGDSDKVMVTSADSQIRIICGVDTICKLKKASSLRTTLMSPTFASFTSDGKHIVSTIEESGIHVWDFSQPNKKASSQKPKTIRSYEGFLSRNVSVAIPWLGQGKEDSIIADLEKSFAHFPVPLDYFSPMKGATTWPEEKLGVVAGTAAAAVSATVSSRSKLRLLKSVCQNVHGSTPHLWGLVIVTATWDGSIRVFHNYGLPIRV | failed |
| MLDPARGYDLIGDVHGCAHTLEHLLELLGYRLQAGVWRHPERIAIFLGDIIDRGPRIRESLHIVRDMVQAGQAYCIMGNHEFNALGWMTPALPESGHLFVREHTPRHARLIGETLAQFEAYPDEWNEFVNWFYELPLYIDAGRFRVVHACWDATLIDPLRGLHGTGCIDRHFVQASAVPGSFASNVFNRLLRGTDMRLPHGLTLTGGDGLTREFFRTKFWEDNPQTYGDVVFQPDALPEGVAKTPLSTSEKNALLRYGSNEPLLFVGHYWRSGIPAPIRPNLACLDYSAVLYGKLVAYRLDQETHVDPDKFVWVDVQRPEVSP | failed |
| MELSFRIWLGGLGMLISLLILYFKAVPELEEFHKNCTLKQNWEQPFKKVKNLTLILSISLLSIIGFFLMFINLVNINPI | failed |
| MSSEYKKGIFLALGAYILWGILPIYWRLIDEIGAFEILAFRIIFSVIFMIFVLIIGKNQRNAFFRDVNQLVSHPVQLIAIIVAGYVITVNWGTFIWAVSNGHVLQSSLGYYINPLVSIVLALIFLKERFNKFEWLAIIFALVGVLYMTIKIGEFPFISLLLAFSFGIYGLLKKIVHIDAISSITIECIVTAPAGLIYVIYLWQQQHITFGLNISSFWLLFSGAITAIPLILFSAGAKRIPLSLTGFIQYVGPTIMFILGIFVFKEPFNTDQLITFIFIWIGIVLYSISQYVQIKKNPVVK | failed |
| MKNKKYLQFGGIAAVILIVLFLVSLFSSDTRNFQEVDTSVAMAQLDAGNVAEAQIDDREQRVRLTLREPITVDEREGVEEILAQYPARTAPAIFEKVEASNTDSYTTNVTQESFLMSMLSFILPMVIIFGLLMFFLTRMQGGGMFGIGGSKAKQLTKDMPTNTFADVAGAEEAVDELHEIKDFLEDPTRYEALGAKIPRGVLLYGPPGTGKTLLARAVAGEAGVPFYSISGSDFVEMFVGVGASRVRDLFKQAKENSPCIIFVDEIDAVGRARGSGMGGGHDEREQTLNQLLVEMDGFGDRQGVILMAATNRPDVLDPALLRPGRFDRQIPVTNPDLRGREQILEVHAKGKPFAPDADIKALAKRTAGMSGADLANVLNEAALLTARVGGNVITADALEEATDRVVGGPRRSGKVISEKEKKVTAYHEGGHTLSAWALEDIERVYKVTILARGRTGGHAMTAQEDDKGMYNRNELFARLVFAMGGRSAEELVFGEPTTGASADIEMATKIARSMVTEYGMSPAVGMVKYGQEQGDPFSGRGGGGNLDHSQEVAATIDTEVQFLLDKAHEVSYSILAEYRDHLDRLAEKLLEKETLRRPDLEALFDDIVPRKVAEVFPDESTRFPRQENREPVKTPVELALERGEEPPKKFSILEASRATRERRRKELEAQGKLPVQPASSAGVAPAAGAAAGSYGTPPPADWSVPGSAGKHRSRAEEQPAEQGFPAQTPAQAPEQSPDSSGGRPNPYATPTASGEHPGMKAYGFGDSELMDQSTGAEHTPGNVSQESPTEMIGFRLPDHERSDYPEKAQKESVLDASETTEMPVVPDQPIDGDSGKSAEGTQENPENEGDNRG | failed |
| MPHDDHEHHHAADSAGAQGRLVWALILTGGFVVFEALAGWKANSLALLTDAVHNLSDVLALGLSWYAMRLTAQPAHAAKTFGYHRAGILAALANSAGLVGVALYILYDAYVRLLSPAPVQADILIGVGGAALLVNAFTAWLVHHGSHDDLNMRSAFLHLLGDVVSTLGAIAAGVAIRYTGLYWLDPAVSVLIALLILWNAKGLMAEVMDILLESTPRDVDMGSMVRDMMQVEGVHGVHHLHVWSISRQLRMLSAHIVTDDIRLSEGEGLQKRVTRLLAQRYGIAHTTLQLESESCQPDSLYCDISRPNHRYHGE | failed |
| MDVLRKQEILPQLPKLDKYERKSSCGNTWQGSLSETESWREKLRYLTDYRLERGRFDKDTDFLSTFQPKQNEVQRNNISFEFDSDKSSRKTDFPGILTERPVLLRTNQEPDVYGARLRELSAANAEGERNVFHEDKTSSSQSKLPSFEIFSAIGQKEDIPGYQGGCLRGETVLKTAAVASPQIADRNSRVSFHDGGILQPINSPTGFSQPRNDNNSYKTSSSEENLYSIRQLPWSEYARTRNYDCVEPSLGVSISDEQRRFGENALCMSVSQPMYEEPHPLVTLRSTEGLTQEQKQLRR | failed |
| MDNLSFHDGNIFNLLHTRSQDPSHEVDQRMQFHSSLVRRLSQEQELEGHQGCVNALAWNSNGSLLISGSDDLRINIWNYSSRKLLHSIDTGHTANIFCTKFVPETSDELVVSGAGDAEVRLFNTSRLSGRAEDDNAIIPSALYQCHTRRVKKLAVEPGNPNVVWSASEDGTLRQHDFRESTSCPPAGTAHQECRSVLLDLRSGAKRALADPPKQTLSLKSCDISATRPHLLLVGGSDAFARLYDRRMLPPLASSRKRMPPPPCVNYFCPMHLSERGRTNLHLTHVTFSPNGEEVLLSYSGEHVYLMNVNNGICSTGIMQYTPGDVDNLFSFSNNLHDVESPPQVSTTPQNGFHRSSNAATVKKCTELVEIAKWSLEEGTDVFYAIEAANEVLDAHSNDIESALRHECLCTRAALLLKRKWKNDAHMAVRDCHNARRIDASSFKAHYYMSEALQQLGKCKEALDFATAAQHMNPSDADIVAKVESIKRDLQAAGAEKNEETGAGTTRVLSLSDILYRSEANSDSSHDMSRSEREDSDYDEELELDIQTSLSDDEGRDTDSNSMRGSLNLRIHRVGDDKPMENTVDNASSGTASSSQNDRTSYQPEGAIDMKRRYVGHCNVGTDIKQASFLGQRGEYIASGSDDGRWFIWEKQTGRLMKVLVGDESVLNCIQCHPFDSVVATSGIDNTIKIWSPTASVPSIVAGGSAGPATANVVEVMESNQQKLSRNRENPLSVELMQRFRMQEFAEGNFHPFECTQS | failed |
| MKDSDKEKENGKMGCWSIEHVEQYLGTDELPKNDLITYLQKNADAAFLRHWKLTGTNKSIRKNRNCSQLIAAYKDFCEHGTKSGLNQG | not failed |
| MKLMDVHVLFSGGKDSSLSAVILKKLGYNPHLITINFGVIPSYKLAEETAKILGFKHKVITLDRKIVEKAADMIIEHKYPGPAIQYVHKTVLEILADEYSILADGTRRDDRVPKLSYSEIQSLEMRKNIQYITPLMGFGYKTLRHLASEFFILEEIKSGTKLSSDYEAEIRHILKERGESPEKYFPEHKQTRVVGLKKEI | not failed |
